1 molecule from article PMC9320857, “Protocellular CRISPR/Cas‐Based Diffusive Communication Using Transcriptional RNA Signaling” can be followed below.

In the data set the target is T7 RNA polymerase (UniProt P00573 1-883). Nature of the data set: confocal localization to immobilized DNA; 500 nM Cy5-T7 RNAP, 0.5 h, 37 C; target in proteinosomes; reaction buffer (composition not in the material; NEB buffer 3.1 mentioned), 37 C; DNA localization in 10 mM Tris pH 8.0, 12 mM Mg, 0.1% Tween 20. The note with it: protein: commercial; tags: Cy5 label; label: Cy3 5' on NTMG; biotin on TMG; NTMG 5' overhang 27 nt (incomplete T7 promoter).
Sequence of T7 RNA polymerase (P00573 whole entry): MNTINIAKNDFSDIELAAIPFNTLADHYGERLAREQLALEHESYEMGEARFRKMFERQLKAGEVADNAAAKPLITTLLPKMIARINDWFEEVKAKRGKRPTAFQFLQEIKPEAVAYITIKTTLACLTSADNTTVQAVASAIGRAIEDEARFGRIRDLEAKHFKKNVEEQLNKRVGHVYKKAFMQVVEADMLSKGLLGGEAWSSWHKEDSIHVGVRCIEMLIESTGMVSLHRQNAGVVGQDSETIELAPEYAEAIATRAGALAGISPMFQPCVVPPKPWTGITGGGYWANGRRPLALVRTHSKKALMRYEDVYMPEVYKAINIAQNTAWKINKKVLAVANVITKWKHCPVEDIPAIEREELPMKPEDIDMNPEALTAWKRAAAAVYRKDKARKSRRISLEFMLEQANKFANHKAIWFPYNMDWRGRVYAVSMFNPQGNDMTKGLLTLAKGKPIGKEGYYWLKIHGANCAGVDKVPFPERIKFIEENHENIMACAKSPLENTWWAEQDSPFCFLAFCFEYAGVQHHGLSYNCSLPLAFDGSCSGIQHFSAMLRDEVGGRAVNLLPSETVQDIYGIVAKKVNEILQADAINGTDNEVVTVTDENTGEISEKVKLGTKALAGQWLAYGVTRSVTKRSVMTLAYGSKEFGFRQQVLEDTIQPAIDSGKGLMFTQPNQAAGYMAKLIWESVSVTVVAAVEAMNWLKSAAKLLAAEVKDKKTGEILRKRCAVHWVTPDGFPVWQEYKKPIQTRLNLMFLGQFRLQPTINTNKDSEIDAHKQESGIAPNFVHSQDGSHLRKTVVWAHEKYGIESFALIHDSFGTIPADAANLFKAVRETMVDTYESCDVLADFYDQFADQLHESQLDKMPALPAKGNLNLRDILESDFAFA

B1: MG genelet TMG/NTMG (dsDNA)
DNA 1: CATTAGTGTCGTTCGTTCACAGTAATACGACTCACTATAGGGATCCCGACTGGCGAGAGCCAGGTAACGAATGGATC
DNA 2: GATCCATTCGTTACCTGGCTCTCGCCAGTCGGGATCCCTATAGTGAGTCG
B1: the binding result is given as “binds”.
